Experimental data reported in patent US20220282268A1 (UNIVERSITY COURT OF THE UNIVERSITY OF EDINBURGH, published 2022).

Tests used:
[1] = biological target: T1, 1AAtMOD (loop): A. thaliana SSU 1A with βA-βB loop replaced with C. reinhardtii βA-βB loop (Arabidopsis thaliana with parts of …); test: yeast two-hybrid (FIG. 3C)
T1 construct: also called pGADT7_1AAtMOD(loop)
T1 chain: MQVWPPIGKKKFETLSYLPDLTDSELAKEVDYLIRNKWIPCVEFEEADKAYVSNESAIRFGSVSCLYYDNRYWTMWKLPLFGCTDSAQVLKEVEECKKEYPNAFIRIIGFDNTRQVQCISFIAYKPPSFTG
Protocol: (§1) The following day 1 ml of culture was harvested, cell density (OD₆₀₀) measured, centrifuged and then diluted in TE to give a final OD₆₀₀ of 0.5 or 0.1.
(§2) Yeast cultures were then plated onto SD-L-W (yeast synthetic minimal media lacking leucine (L) and tryptophan (W)) and SD-L-W-H (yeast synthetic minimal media lacking L, W, and histidine(H)) (Anachem). Yeast expressing both binding and activation domain constructs was grown on SD-L-W to confirm presence of both plasmids. To assess interaction strength, yeast was plated onto SD-L-W-H with differing concentrations of the HIS3 inhibitor 3-aminotriazole (3-AT). These plates were then incubated for 3 days before assessing for presence or absence of growth, to perform a semi-quantitative yeast two-hybrid assay as in van Nues and Beggs (van Nues and Beggs, Genetics (2000) 157: 1451-1467). The same yeast transformation was used for each interaction study. Different colonies on the same yeast transformation plate were considered independent biological replicates (as for E. coli). Two biological replicates (top and bottom row for each interaction) were spotted from different liquid culture concentrations (0.5 and 0.1 OD). Each interaction experiment was performed at least twice.
(§3) Interactions were only observed between EPYC1 and chimeric 1AAt with the two α-helices from the C. reinhardtii SSU (FIG. 3C). The S1Cr 1AAt with the S1Cr α-helices alone produced a minimal interaction (i.e., on 0 mM 3-AT), which was strengthened by the incorporation of the β-sheets and the βA-βB loop from S1Cr.

[2] = biological target: T2, 1AAtMOD (α-helices and β-sheets): A. thaliana SSU 1A with α-helices and β-sheets replaced with those of C. … (Arabidopsis thaliana with parts of …); test: yeast two-hybrid (FIG. 3C)
T2 construct: also called pGADT7_1AAtMOD(α-helices + β-sheets)
T2 chain: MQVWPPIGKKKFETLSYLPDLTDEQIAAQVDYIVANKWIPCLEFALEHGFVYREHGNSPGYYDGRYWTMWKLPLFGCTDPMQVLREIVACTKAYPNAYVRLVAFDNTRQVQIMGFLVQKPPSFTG
Protocol: as §1, §2, §3

[3] = biological target: T3, 1AAtMOD (β-sheets): A. thaliana SSU 1A with β-sheets replaced with C. reinhardtii β-sheets (Arabidopsis thaliana with parts of …); test: yeast two-hybrid (FIG. 3C)
T3 construct: also called pGADT7_1AAtMOD(β-sheets)
T3 chain: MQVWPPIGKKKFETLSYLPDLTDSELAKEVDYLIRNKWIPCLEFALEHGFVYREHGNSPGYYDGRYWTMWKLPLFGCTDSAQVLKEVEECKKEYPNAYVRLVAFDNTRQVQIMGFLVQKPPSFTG
Protocol: as §1, §2, §3

[4] = biological target: T4, 1AAtMOD (α-helices, β-sheets and loop): A. thaliana SSU 1A with α-helices, β-sheets and βA-βB loop replaced … (Arabidopsis thaliana with parts of …); test: yeast two-hybrid (FIG. 3C)
T4 construct: also called 1AAtMod (α-helices, β-sheet and loop); pGADT7_1AAtMOD(α-helices + β-sheets + loop)
T4 chain: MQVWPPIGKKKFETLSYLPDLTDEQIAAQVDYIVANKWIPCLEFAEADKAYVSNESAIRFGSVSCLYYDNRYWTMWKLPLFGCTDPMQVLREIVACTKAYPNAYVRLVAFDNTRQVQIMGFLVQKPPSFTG
Protocol: as §1, §2, §3

[5] = biological target: T5, 1AAtMOD (β-sheets and loop): A. thaliana SSU 1A with β-sheets and βA-βB loop replaced with those of C. … (Arabidopsis thaliana with parts of …); test: yeast two-hybrid (FIG. 3C)
T5 construct: also called 1AAtMod (β-sheet and loop); pGADT7_1AAtMOD(β-sheets + loop)
T5 chain: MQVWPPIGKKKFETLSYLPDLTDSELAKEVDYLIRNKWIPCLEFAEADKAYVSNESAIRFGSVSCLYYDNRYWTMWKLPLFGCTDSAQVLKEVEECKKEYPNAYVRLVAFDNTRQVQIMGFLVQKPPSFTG
Protocol: as §1, §2, §3

[6] = biological target: A. thaliana Rubisco small subunit 1A (1AAt), mature (Arabidopsis thaliana, UniProt P10795 56-180); test: yeast two-hybrid, growth on SD-L-W-H with 3-AT
Protocol: (§4) Competent yeast cells (Y2H Gold, Clontech) were prepared from a 50 ml culture grown in YPDA medium supplemented with kanamycin (50 μg ml⁻¹). Cells were washed with ddH2O and a lithium acetate/TE solution (100 mM LiAc, 10 mM Tris-HCl [pH 7.5], 1 mM EDTA) before re-suspending in lithium acetate/TE solution. Cells were then co-transformed with binding and activation domain vectors by mixing 50 μl of competent cells with 1 μg of each plasmid vector and a PEG solution (100 mM LiAc, 10 mM Tris-HCl [pH 7.5], 1 mM EDTA, 40% [v/v] PEG 4000). Cells were incubated at 30° C. for 30 min, then subjected to a heat shock of 42° C. for 20 min. The cells were centrifuged, re-suspended in 500 μl YPDA and incubated at 30° C. for ca 90 min, then centrifuged and washed in TE (10 mM Tris-HCl [pH 7.5], 1 mM EDTA). […] The following day 1 ml of culture was harvested, cell density (OD₆₀₀) measured, centrifuged and then diluted in TE to give a final OD₆₀₀ of 0.5 or 0.1.
(§5) Yeast cultures were then plated onto SD-L-W (yeast synthetic minimal media lacking leucine (L) and tryptophan (W)) and SD-L-W-H (yeast synthetic minimal media lacking L, W, and histidine(H)) (Anachem). […] These plates were then incubated for 3 days before assessing for presence or absence of growth, to perform a semi-quantitative yeast two-hybrid assay as in van Nues and Beggs (van Nues and Beggs, Genetics (2000) 157: 1451-1467). […]

[7] = biological target: T6, A. thaliana CP12-2 (AtCP12) (Arabidopsis thaliana, UniProt Q9LZP9 54-131, limits assumed); test: yeast two-hybrid
T6 construct: also called AT3G62410; pGADT7_CP12
T6 sequence (looked up): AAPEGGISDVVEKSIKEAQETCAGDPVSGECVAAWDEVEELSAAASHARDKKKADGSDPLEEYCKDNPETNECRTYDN
Protocol: as §4, §5

[8] = biological target: the molecule itself; test: yeast two-hybrid, EPYC1 in both the binding domain and the activation domain vector
Protocol: as §4, §5

B1: Essential Pyrenoid Component 1 (EPYC1), full-length, C. reinhardtii (other)
chain: MATISSMRVGAASRVVVSGRVKTVKVAARGSWRESSTATVQASRASSATNRVSPTRSVLPANWRQELESLRNGNGSSSAASSAPAPARSSSASWRDAAPASSAPARSSSASKKAVTPSRSALPSNWKQELESLRSSSPAPASSAPAPARSSSASWRDAAPASSAPARSSSSKKAVTPSRSALPSNWKQELESLRSSSPAPASSAPAPARSSSASWRDAAPASSAPARSSSASKKAVTPSRSALPSNWKQELESLRSNSPAPASSAPAPARSSSASWRDAPASSSSSSADKAGTNPWTGKSKPEIKRTALPADWRKGL
notes: also called Cre10.g436550.t1.2; pGBKT7_EPYC1
[1]
  binding result: no binding
[2]
  binding result: binds
[3]
  binding result: no binding
[4]
  binding result: binds
[5]
  binding result: no binding
[6]
  binding result: no binding
[7]
  binding result: no binding
[8]
  binding result: no binding
